T1: murine (mu) Robo 4 ECD-PreS-Avi-His (mouse)
T1 construct: also called recombinant murine Robo 4; murine Robo 4
T1 chain: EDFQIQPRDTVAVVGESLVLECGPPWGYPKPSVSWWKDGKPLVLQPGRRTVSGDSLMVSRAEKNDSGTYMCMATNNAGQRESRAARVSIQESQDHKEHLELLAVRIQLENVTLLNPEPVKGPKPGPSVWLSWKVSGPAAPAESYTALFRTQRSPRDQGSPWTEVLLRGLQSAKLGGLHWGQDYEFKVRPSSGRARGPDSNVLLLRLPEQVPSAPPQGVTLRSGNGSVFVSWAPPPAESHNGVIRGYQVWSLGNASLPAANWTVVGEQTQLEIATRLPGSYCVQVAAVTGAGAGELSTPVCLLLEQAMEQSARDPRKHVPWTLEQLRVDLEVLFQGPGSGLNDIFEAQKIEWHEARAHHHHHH

T2: recombinant cynomolgus Robo 4 ECD fused to AcTEV protease recognition site, Avi- and 6xHis-tag (cynomolgus)
T2 construct: Biotinylated in the avidity assay
T2 chain: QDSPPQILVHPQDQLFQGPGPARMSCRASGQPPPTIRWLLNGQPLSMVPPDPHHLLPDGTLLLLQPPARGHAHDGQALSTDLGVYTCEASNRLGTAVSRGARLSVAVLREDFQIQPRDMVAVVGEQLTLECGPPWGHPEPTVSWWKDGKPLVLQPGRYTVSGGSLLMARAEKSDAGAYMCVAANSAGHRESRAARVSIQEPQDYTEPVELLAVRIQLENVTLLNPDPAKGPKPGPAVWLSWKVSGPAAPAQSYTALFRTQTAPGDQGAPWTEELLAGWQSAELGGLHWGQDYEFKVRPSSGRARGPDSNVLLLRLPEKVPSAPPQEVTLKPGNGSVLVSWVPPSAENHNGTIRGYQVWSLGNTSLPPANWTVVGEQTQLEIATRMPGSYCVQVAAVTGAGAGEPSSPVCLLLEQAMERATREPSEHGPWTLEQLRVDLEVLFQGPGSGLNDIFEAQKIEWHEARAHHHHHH

T3: human (hu) Robo 4 extracellular domain (ECD)-precision site (PreS)-Avi-tag (Avi)-6x histidine (His) (human)
T3 construct: it holds the ECD with PreScission site, Avi-tag and His-tag; also called recombinant human Robo 4; human Robo 4
T3 chain: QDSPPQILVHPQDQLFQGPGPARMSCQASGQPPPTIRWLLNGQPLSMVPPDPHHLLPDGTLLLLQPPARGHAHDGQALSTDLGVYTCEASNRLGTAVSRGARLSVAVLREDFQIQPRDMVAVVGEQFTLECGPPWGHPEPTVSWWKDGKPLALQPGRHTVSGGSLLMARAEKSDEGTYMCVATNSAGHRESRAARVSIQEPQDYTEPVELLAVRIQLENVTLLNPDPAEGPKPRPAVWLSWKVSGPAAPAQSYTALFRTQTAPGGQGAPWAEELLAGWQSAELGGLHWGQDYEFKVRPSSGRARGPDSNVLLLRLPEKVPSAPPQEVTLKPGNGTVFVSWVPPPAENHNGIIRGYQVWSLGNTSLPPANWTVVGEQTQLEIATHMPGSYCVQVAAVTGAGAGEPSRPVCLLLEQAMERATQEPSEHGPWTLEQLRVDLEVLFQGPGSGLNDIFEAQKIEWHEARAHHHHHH


Columns and labels:
[1] = molecular target: T1, murine (mu) Robo 4 ECD-PreS-Avi-His; assay: SPR Biacore T100, IgG captured via anti-human Fab, antigen as analyte (affinity)
Experimental: (§1) All surface plasmon resonance (SPR) experiments are performed on a Biacore T100 at 25° C. with HBS-EP as running buffer (0.01 M HEPES pH 7.4, 0.15 M NaCl, 3 mM EDTA, 0.005% Surfactant P20 (Biacore)).
(§2) Anti Robo 4 antibodies were captured for 60 s at 50 nM. Recombinant human, murine and cynomolgus Robo 4 were passed at a concentration range from 0.46-1000 nM with a flow of 30 μl/min through the flow cells over 90 s. The dissociation was monitored for 120 s. Bulk refractive index differences were corrected for by subtracting the response obtained on a reference flow cell. Here, the antigens were flown over a surface with immobilized anti-human Fab specific antibody on which HBS-EP has been injected rather than the antibodies.
(§3) Kinetic constants were derived using the Biacore T100 Evaluation Software (vAA, Biacore), to fit rate equations for 1:1 Langmuir binding by numerical integration.

[2] = molecular target: T2, recombinant cynomolgus Robo 4 ECD fused …; assay: as above
Experimental: as §1, §2, §3

[3] = molecular target: T3, human (hu) Robo 4 extracellular domain …; assay: as above
Experimental: as §1, §2, §3

[4] = molecular target: T2, recombinant cynomolgus Robo 4 ECD fused …; assay: SPR Biacore T100, biotinylated antigen on streptavidin chip, IgG as analyte (avidity)
Experimental: as §1
(§4) Determination of avidity was done by direct immobilization of biotinylated recombinant human, murine and cynomolgus Robo 4 on a Streptavidin sensor chip. Immobilization level ranged from 300 to 1000 RU. Anti-Robo 4 antibodies were passed through the flow cells for 220 s at 30 μl/min in a concentration range from 0.78-50 nM. Dissociation was monitored for 220 s. For the blank and the 25 nM injection dissociation was monitored for 600 s.
as §3

[5] = molecular target: T3, human (hu) Robo 4 extracellular domain …; assay: as above
Experimental: as §1, §4, §3

[6] = molecular target: T1, murine (mu) Robo 4 ECD-PreS-Avi-His; assay: SPR Biacore T100, IgG captured via anti-human Fab, antigen as analyte
Experimental: as §1, §2, §3

| Kd [1] [nM] | koff [1] [s⁻¹] | kon [1] [M⁻¹ s⁻¹] | Kd [2] [nM] | koff [2] [s⁻¹] | kon [2] [M⁻¹ s⁻¹] | Kd [3] [nM] | koff [3] [s⁻¹] | kon [3] [M⁻¹ s⁻¹] | Kd [4] [nM] | koff [4] [s⁻¹] | kon [4] [M⁻¹ s⁻¹] | Kd [5] [nM] | koff [5] [s⁻¹] | kon [5] [M⁻¹ s⁻¹] | Binder | binding result [6] |
| --- | --- | --- | --- | --- | --- | --- | --- | --- | --- | --- | --- | --- | --- | --- | --- | --- |
| 10.1 | 0.00031 | 30800 | 144 | 0.00191 | 13300 | 15.3 | 0.00091 | 59600 | 0.58 | 0.000475 | 822000 | 0.093 | 6.13e-05 | 657000 | 01F05 anti-Robo 4 IgG (antibody, V domains shown, also called 01F05 IgG) VH: QVQLKQSGAELVKPGASVKISCKTSVYTFTYGYMHWVEQKPGQGLEWIGRIDPDSGNSMYNQKFQGRATLTRDKSSSTVYMELRSLTSEDSAVYYCARSMRYSGYRDYALDLWGQGTQVTVSS VL: QLVLTQSPSASASLGASVKLTCTLSSQHSSYGITWLQQHPDKAPKYVMYLKSDGSHTKGADIPDRFSGSSSGVHRYLSISNVQPEDEAIYFCVTYDSTHVFGSGTQLTVLG | – |
| 256 | 0.0307 | 120000 | 474 | 0.0315 | 66600 | 2.63 | 0.00063 | 241000 | 0.37 | 0.000817 | 2.22e+06 | 0.018 | 3.78e-05 | 2.1e+06 | 01F09 anti-Robo 4 IgG (antibody, V domains shown, also called 01F09 IgG) VH: QIQLQESGPGLVKPSQSLSLTCSVTGYSISSGSLWTWIRQFPGNNLEWMGYISYAGGIDYNPSLTSRISITRDTSRNQFFLQLESVTTQDTATYYCATPGGYPFHFDYWGQGTMVTVSS VL: QPVLTQSPSASASLGASVKLTCTLNSQFSTYNIGWYQQHRDKPPKYVMFVKGDGGHSKADGIPDRFSGSSSGADRYLTISNIQAEDEAIYFCGADYNNAGQYGCVFGSGTHFTVLG | – |
| – | – | – | 64.1 | 0.00116 | 18100 | 23.4 | 0.00102 | 43800 | 0.94 | 0.000291 | 310000 | 0.421 | 0.000152 | 361000 | 7G2 anti-Robo 4 IgG (antibody, V domains shown, also called 7G2 IgG) VH: not shown VL: EIVLTQSPGTLSLSPGERATLSCRASQSVSSSYLAWYQQKPGQAPRLLIYGASSRATGIPDRFSGSGSGTDFTLTISRLEPEDFAVYYCQQGQLPPRTFGQGTKVEIK | no binding (tested: antigen 0.46-1000 nM) |
| 166 | 0.0128 | 77100 | 0.96 | 8e-05 | 80400 | 0.69 | 0.00033 | 479000 | 0.0001 | – | 1.13e+06 | 0.0007 | ~1.25e-06 | 1.76e+06 | 01E06 anti-Robo 4 IgG (antibody, V domains shown, also called 01E06 IgG) VH: EVQLVESGGGLSQPGNSLKLSCEASGFTFRNYDMSWVRQAPGKGLEWVAYISSGGGPIYYVDAVKGRFTISRDNAKNLLFLQMNNLRSEDTAVYYCARDLADIGVFDYWGQGTMVTVSS VL: DFKMTQSPDILSPSLGESVTITCQSSQNIYSNLAWYQQKPGEHPKLLIYTASILADGIPSRFTGSGSGTQFSLKISSLQPDDVANYYCQQYVYYRTFGPGTKLEIK | – |
